Experimental data as given in publication PMC2735845.

Biological target: RecQ;SSB113 (Escherichia coli;Escherichia coli, UniProt P15043;P0AGE0 1-609;2-178, |P177S)
Experiment: EMSA

B1: 3'-OH partial duplex (o100/o30) (mixed)
DNA 1: GACGCTCGGTTCGTCTAGGACCGTCATTAGTATGTTGATATACATAGACCTTACCGCAGTGATTCGCTTGTCAGTCCATTGAAGCACAATTACCCACGC
DNA 2: CTAATGACGGTCCTAGACGAACCGAGCGTC
binding result: binds
